# Data published in patent US20260210939A1, “MODIFIED OLFACTORY RECEPTORS” (GIVAUDAN SA, priority 2022, published 2026).
# Target: T1, OR7C1 (Homo sapiens, UniProt O76099, D296E/G302K/M297V/R299D/T295K/V126I)
# T1 construct: Improved functional expression of modified OR-genes containing the truncated, optimized C-terminus; expressed in transfected cells; host or cells: HEK293T stably expressing human RTP1S(V227I) and RTP2(L220R)
# T1 sequence (O76099 with tags, fused parts or gaps V126I/T295K/D296E/M297V/R299D/G302K): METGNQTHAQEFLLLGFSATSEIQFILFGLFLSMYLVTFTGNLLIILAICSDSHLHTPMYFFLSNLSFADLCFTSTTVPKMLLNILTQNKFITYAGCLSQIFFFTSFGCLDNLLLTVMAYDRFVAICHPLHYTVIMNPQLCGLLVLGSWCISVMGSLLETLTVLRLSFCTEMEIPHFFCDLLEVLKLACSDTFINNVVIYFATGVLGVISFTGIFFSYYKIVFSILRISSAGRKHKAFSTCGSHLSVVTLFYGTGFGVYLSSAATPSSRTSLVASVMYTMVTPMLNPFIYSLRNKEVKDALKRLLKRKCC
# Test: CRE-luciferase assay, HEK293T cells expressing OR7C1 (wild-type / modified C-terminus)
# Type: cell-based
# Conditions: OR7C1 variant, 1 μM Ambermax
# Text: To test for possible variants of the sequence […]CC (SEQ ID NO: 86) leading to similar improved functional expression, different point mutations were introduced into the first 16 amino acids of this sequence (corresponding to […], SEQ ID NO: 10) and the variants were fused after the TM7 with OR7C1. […] The test concentrations were selected to fall into the range of partial activity of the wild-type sequence.
row,Substance,% of the activation by the optimized sequence RNKEVKDALKRLLKRKCC [%]
1,Ala Ala,2.1
2,Ala Glu,2.1
3,Arg Arg,167.7
4,Arg Gly,139.9
5,Arg Lys,2.0
6,Arg Phe,130.8
7,Arg Pro,83.9
8,Arg Tyr,72.0
9,Cys Gly,142.3
10,Cys Phe,100.5
11,Gln Glu,0.0
12,Glu Arg,85.0
13,Glu Lys,153.0
14,Gly Cys,126.8

# Target: T2, OR7D4 (Homo sapiens, UniProt Q8NG98, D296E/E302K/G299D)
# T2 construct: Improved functional expression of modified OR-genes containing the truncated, optimized C-terminus; expressed in transfected cells
# T2 sequence (Q8NG98 with tags, fused parts or gaps D296E/G299D/E302K): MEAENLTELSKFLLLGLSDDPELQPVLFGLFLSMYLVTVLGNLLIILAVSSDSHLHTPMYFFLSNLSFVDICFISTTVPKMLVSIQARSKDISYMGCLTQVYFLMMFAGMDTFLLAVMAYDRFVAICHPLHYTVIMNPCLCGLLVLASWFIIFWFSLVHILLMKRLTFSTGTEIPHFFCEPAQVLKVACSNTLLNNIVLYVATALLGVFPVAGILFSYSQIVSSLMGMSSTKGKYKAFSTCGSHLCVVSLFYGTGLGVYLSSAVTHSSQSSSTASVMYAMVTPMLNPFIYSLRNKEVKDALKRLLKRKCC
# Test: CRE-luciferase assay, HEK cells expressing OR7D4 (wild-type / modified C-terminus)
# Type: cell-based
# Conditions: OR7D4 variant, 0.1 μM Androstenone
# Text: Random permutations of the general C-terminal sequence RN[KR][EDQ][VMIL][KR]KA[LIV][KRH][KR][LI][LIF][KRG][KR][KR]CC (SEQ ID NO: 822) linked to OR7D4 were generated based on degenerate oligonucleotides for the C-terminal domain. For this experiment, the MfeI/XhoI fragment from pcDNA3.1(+)-mmLucy-FLAG-rho-OR7D4 containing the CMV promoter and the OR coding sequence was used to replace the EcoRI/SalI fragment of pRDVCCB-CMV-dCas9-VPH-2A-Blast (Cellecta, Inc., Mountain View, USA). Complementary degenerate oligonucleotides were then used to replace the coding region of the C-terminal domain of […] (between Bsu36I and NotI). Random clones were selected, sequenced and tested for a correct open reading frame. A total of 55 clones were obtained with the correct open reading frame of […] and a permutation of the general sequence RN[KR][EDQ][VMIL][KR]KA[LIV][KRH][KR][LI][LIF][KRG][KR][KR]CC (SEQ ID NO: 822) as the C-terminal domain. All the different clones were compared to the wild-type sequence by the functional assay in HEK cells with the ligand Androstenone tested in a dose-response test.
row,Substance,Fold induction luciferase
1,SEQ ID NO: 285 (RNKELKKALRRLIGRRCC; source 1..18: note = C-terminal domain sequence),3.18
2,SEQ ID NO: 288 (RNKEVRKALKKLFGKKCC; source 1..18: note = C-terminal domain sequence),17.84
3,SEQ ID NO: 305 (RNKDLKKAVKKLFGRKCC; source 1..18: note = C-terminal domain sequence),1.63

# Same assay, conditions: OR7D4 variant, 1 μM Androstenone
row,Substance,Fold induction luciferase
1,SEQ ID NO: 285 (RNKELKKALRRLIGRRCC; source 1..18: note = C-terminal domain sequence),22.10
2,SEQ ID NO: 288 (RNKEVRKALKKLFGKKCC; source 1..18: note = C-terminal domain sequence),28.81
3,SEQ ID NO: 305 (RNKDLKKAVKKLFGRKCC; source 1..18: note = C-terminal domain sequence),10.13

# Same assay, conditions: OR7D4 variant, Androstenone
Substance,EC2 (concentration for 2-fold luciferase induction) [µM],EC2 Fold-improvement vs. wild-type
SEQ ID NO: 281 (RNKEIKKAIKKIIKKRCC; source 1..18: note = C-terminal domain sequence),0.029,60.06
SEQ ID NO: 282 (RNRDVKKAIRRLFRRRCC; source 1..18: note = C-terminal domain sequence),0.007,250.61
SEQ ID NO: 283 (RNREVKKAVKKLIGKRCC; source 1..18: note = C-terminal domain sequence),0.013,128.83
SEQ ID NO: 284 (RNREMRKALRRLFRKRCC; source 1..18: note = C-terminal domain sequence),0.003,545.04
SEQ ID NO: 285 (RNKELKKALRRLIGRRCC; source 1..18: note = C-terminal domain sequence),0.042,41.00
SEQ ID NO: 286 (RNRDVKKALRKLIGKRCC; source 1..18: note = C-terminal domain sequence),0.003,545.04
SEQ ID NO: 287 (RNREVKKAVKKLIRRKCC; source 1..18: note = C-terminal domain sequence),0.012,144.06
SEQ ID NO: 288 (RNKEVRKALKKLFGKKCC; source 1..18: note = C-terminal domain sequence),0.006,294.52
SEQ ID NO: 289 (RNKEIRKALRRLFGKKCC; source 1..18: note = C-terminal domain sequence),0.014,119.65
SEQ ID NO: 290 (RNKDVKKALRRLFGKKCC; source 1..18: note = C-terminal domain sequence),0.008,225.85
SEQ ID NO: 291 (RNKELKKAIKRLIRRKCC; source 1..18: note = C-terminal domain sequence),0.113,15.28
SEQ ID NO: 292 (RNKDVRKAVKRLLKKRCC; source 1..18: note = C-terminal domain sequence),0.018,94.88
SEQ ID NO: 293 (RNKELRKAIRRLLRRRCC; source 1..18: note = C-terminal domain sequence),0.068,25.22
SEQ ID NO: 294 (RNRDIRKALRKLFKKKCC; source 1..18: note = C-terminal domain sequence),0.008,224.95
SEQ ID NO: 295 (RNRELKKALRRLLRRRCC; source 1..18: note = C-terminal domain sequence),0.033,51.89
SEQ ID NO: 296 (RNREVKKALRRLFGKKCC; source 1..18: note = C-terminal domain sequence),0.003,525.05
SEQ ID NO: 297 (RNRDVRKALKRLLKRKCC; source 1..18: note = C-terminal domain sequence),0.005,337.39
SEQ ID NO: 298 (RNRDMRKAIRKLFGRKCC; source 1..18: note = C-terminal domain sequence),0.011,162.22
SEQ ID NO: 299 (RNRELKKAIRKLLKRKCC; source 1..18: note = C-terminal domain sequence),0.093,18.62
SEQ ID NO: 300 (RNRDIRKAVKKLFGKKCC; source 1..18: note = C-terminal domain sequence),0.020,87.76
SEQ ID NO: 301 (RNKEVKKAIRKLFGRRCC; source 1..18: note = C-terminal domain sequence),0.013,128.57
SEQ ID NO: 302 (RNREVRKAVRKLFRRKCC; source 1..18: note = C-terminal domain sequence),0.014,126.99
SEQ ID NO: 303 (RNRDMKKALKKLFRRRCC; source 1..18: note = C-terminal domain sequence),0.011,150.37
SEQ ID NO: 304 (RNRDVRKALKRLLGRRCC; source 1..18: note = C-terminal domain sequence),0.006,292.59
SEQ ID NO: 305 (RNKDLKKAVKKLFGRKCC; source 1..18: note = C-terminal domain sequence),0.131,13.15
SEQ ID NO: 306 (RNKDVRKAVRRLFGRRCC; source 1..18: note = C-terminal domain sequence),0.017,103.17
